Test results from US6156546 (Washington State University Research Foundation, dated 2000).

How the values were obtained:
[1] = biological target: Human plasma fibronectin (human) (UniProt P02751); assay: soluble 125I-Fn bound to untreated whole C. jejuni, gamma counting
[2] = biological target: Human plasma fibronectin (human, UniProt P02751-8, 125I-labelled (Iodogen method) or biotinylated (sulfo-NHS-biotin) in the ligand blots and the soluble binding assay; unlabelled when immobilised on coverslips); assay: ligand blot with 125I-labeled Fn

C. jejuni whole bacteria (isolate not stated) in the soluble 125I-Fn assay (cells without a defined receptor)
ng Fn bound [1]: 380 ng

B1: CadF protein of Campylobacter coli M275 (other)
chain: ADNNVKFEITPTLNHNYFEGNLDMDNRYAPGIRLGYHFDDFWLDQLELGLEHYSDVKYTNSTLTTDITRTYLSAIKGIDLGEKFYFYGLAGGGYEDFSKGAFDNKSGGFGHYGAGLKFRLSDSLALRLETRDQISFHDADHSWVSTLGISFGFGAKREKVVAEQVKEVAIEPRVAVPTQSQCPAEPREGAMLDENGCEKTISFEGHFGFDKVDINPAFEEKIKEIAQLLDENARYDTILEGHTDNIGSRAYNQKLSERRAESVAKELEKFGVDKDRIQTVGYGQDKPRSRNETKEGRADNRRVDAKFILR
binding result [2]: binds
